Measurements from patent US20140147444A1 (published 2014).
Values joined by “and” are separate entries in the source; they are usually repeats but may differ in a detail not shown here. Equal values may be shown once.

B2: human OPGbp [143-317] (ligand, UniProt O14788 143-317, looked up)
chain: EKAMVDGSWLDLAKRSKLEAQPFAHLTINATDIPSGSHKVSLSSWYHDRGWAKISNMTFSNGKLIVNQDGFYYLYANICFRHHETSGDLATEYLQLMVYVTKTSIKIPSSHTLMKGGSTKYWSGNSEFHFYSINVGGFFKLRSGEEISIEVSNPSLLDPDQDATYFGAFKVRDID
notes: also called OPGL

Key:
human OPGbp [143-317] [1] = biological target: B2; assay: cell-based or functional assay
human OPGbp [143-317] [2] = biological target: B2; assay: SPR (BIAcore), OPGbp on CM5 chip (47 RU)
Protocol: (§1) The binding constant (Kd), on rate constant (ka) and off rate constant (kd) for Fabs “AT” and “Y” and “AT” antibody were determined by surface plasmon resonance techniques (BIAcore, Pharmacia, Piscataway, N.J.) and the results are shown in Table II. Fabs were prepared as described in Example 4 and “AT” antibody prepared as described in Example 7. OPGbp was immobilized on a CM5-chip by standard amine coupling. The Kd and rate constants were determined by BIAEVALUATION 3.0 software (Pharmacia).

human OPGbp [143-317] [3] = biological target: B2; assay: SPR (BIAcore), OPGbp on CM5 chip (80 RU)
Protocol: as §1

human OPGbp [143-317] [4] = biological target: B2; assay: SPR (BIAcore), OPGbp on CM5 chip (147 RU)
Protocol: as §1

human OPGbp [143-317] [5] = biological target: B2; assay: SPR (BIAcore), immobilized OPGbp [143-317]
murine OPGbp[158-316] = biological target: T1, murine OPGbp[158-316] (murine, UniProt O35235 158-316); assay: EIA on plates coated with murine OPGbp[158-316]
T1 sequence: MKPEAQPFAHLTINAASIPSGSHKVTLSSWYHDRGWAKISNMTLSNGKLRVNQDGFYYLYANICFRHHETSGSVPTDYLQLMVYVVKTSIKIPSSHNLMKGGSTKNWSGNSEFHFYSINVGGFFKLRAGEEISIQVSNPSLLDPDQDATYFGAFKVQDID
Protocol: After overnight incubation, the protein solutions were removed from the plate and 200 μl of 5% Chicken Serum (Gibco/BRL Cat#16110-082) in PBST (PBS plus 0.05% Tween 20) was added to each well of the plate and plates were incubated at room temperature (RT) for 90 min with agitation. After incubation and blocking, plates were washed 4 times with 1×K-P wash solution in dH₂O (Cat#50-63-00, Kirkegaard & Perry Laboratories) and dried. […] Plates were incubated for three hours at room temperature with agitation, washed four times with 1× K-P wash solution and dried. Goat anti-human IgG (Fc) (Jackson ImmunoResearch, Cat#109-036-098) was diluted 1:5000 in 5% Chicken Serum in PBST and 100 μl was added to each well. […] 100 μl of undiluted ABTS substrate (Kirkegaard & Perry; Cat#50-66-00) was added to each well and the dish was incubated at room temperature until sufficient blue-green color developed. Color development was stopped by addition of 100 μl 1% SDS. Quantitation of color development was performed using a microtiter plate reader with detection at 405 nm.

[6] = biological target: T2, soluble ODAR-Fc fusion (FLAG-human ODAR extracellular domain-human Fc) (human, UniProt Q9Y6Q6 30-212); assay: FRET competition, unlabelled OPGbp against OPGbp-Eu on sODAR-Fc, in PBS (positive control)
T2 construct: extracellular domain; also called sODAR-Fc; not shown: amino terminal FLAG tag; carboxy terminal human Fc region
T2 sequence (looked up): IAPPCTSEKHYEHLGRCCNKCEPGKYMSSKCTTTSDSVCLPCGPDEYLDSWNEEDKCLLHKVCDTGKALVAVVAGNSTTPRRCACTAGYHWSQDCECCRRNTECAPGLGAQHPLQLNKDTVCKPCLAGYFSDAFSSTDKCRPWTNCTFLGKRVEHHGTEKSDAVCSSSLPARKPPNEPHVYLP
Protocol: (§2) A 1 hour preincubation with OPGbp was added for increased sensitivity. A soluble extracellular domain of human ODAR was constructed as a fusion polypeptide with an amino terminal FLAG tag and a carboxy terminal human Fc region. The Fc region is recognized and bound by a polyclonal goat anti-human Fc specific allophycocyanin (APC) which is detected by […] at 665 nm. […] Binding of OPGbp to ODAR in this assay triggers a fluorescent energy transfer and is highly sensitive for competition curves. A decrease in the A665/A620 absorbance ratio indicates inhibition of OPGbp binding to ODAR.
(§3) The Fab “Y” clone 1B4 was from the predominant 9 member pattern from one 96-well plate (all with same amino acid sequence) from the optimized plated OPGbp screen using a 1 μM OPGbp elution for 90 min. […] Similar IC50's were obtained with the duplicate preparations “A” and “B”.

[7] = biological target: T2, soluble ODAR-Fc fusion (FLAG-human ODAR …); assay: FRET competition, unlabelled OPGbp against OPGbp-Eu on sODAR-Fc, in TBS (positive control)
Protocol: as §2, §3

human OPGbp [143-317] [8] = biological target: B2; assay: phage ELISA on plated OPGbp [143-317]

B1: “AT” antibody (full-length human IgG1) (antibody, V domains shown)
VH: QVQLVQSGAEVRKPGASVKVSCKASGYDFSNYAIHWVRQAPGQRLEWMGWINAGNGNTKFSQKFQGRITVTRDTAASTAYMELRSLRSEDTAVYYCARDSSNMVRGIIIAYYFDYWGQGTLVTVSS
VL: EIVMTQSPSSLSASVGDRVTITCRASQSISRYLNWYQLKPGKAPRLLIYGASSLQSGVPSRFSGSGSGAEFTLTISSLQPEDIATYYCQHTRAFGQGTKVEIKR
notes: Expressed in CHO cells; also called “AT” Ab; not shown: human IgG1 CH1, hinge, CH2 and CH3
RAW cell assay, IC50, preparation “AT”405 (human OPGbp [143-317] [1]): 3 ug/ml and 20.1 nM
RAW cell assay, IC50, preparation “AT”406 (human OPGbp [143-317] [1]): 60.3 nM and 9 ug/ml
RAW cell assay, IC50, preparation “AT”407 (human OPGbp [143-317] [1]): 21.4 nM and 3.2 ug/ml
bone marrow assay, inhibition of TRAP formation, IC50, preparation “AT”406 (human OPGbp [143-317] [1]): 2.35 µg/ml and 14.4 nM
murine bone marrow assay, IC50, preparation “AT”405 (human OPGbp [143-317] [1]): 2.15 ug/ml and 14.4 nM
murine bone marrow assay, IC50, preparation “AT”407 (human OPGbp [143-317] [1]): 1.85 ug/ml and 12.5 nM
Kd (human OPGbp [143-317] [2]): 0.43 nM
koff (human OPGbp [143-317] [2]): 0.0031 s⁻¹
kon (human OPGbp [143-317] [2]): 7.3e+06 M⁻¹ s⁻¹
Kd (human OPGbp [143-317] [3]): 0.33 nM
koff (human OPGbp [143-317] [3]): 0.0027 s⁻¹
kon (human OPGbp [143-317] [3]): 8.1e+06 M⁻¹ s⁻¹
Kd (human OPGbp [143-317] [4]): 0.42 nM
koff (human OPGbp [143-317] [4]): 0.0024 s⁻¹
kon (human OPGbp [143-317] [4]): 5.7e+06 M⁻¹ s⁻¹
Kd (human OPGbp [143-317] [5]): 1.18 nM
koff (human OPGbp [143-317] [5]): 0.002 s⁻¹
kon (human OPGbp [143-317] [5]): 1.7e+06 M⁻¹ s⁻¹
binding result (murine OPGbp[158-316]): no binding (tested: 2 ug/ml down to 1.953 ng/ml)

B2
IC50 [6]: 0.93 nM
IC50 [7]: 0.89 nM

B3: Fab “S” (Fab, V domains shown)
VH: EVQLLESGGGLVQPGRSLRLSCAASGFTFDDYAMHWVRQAPGKGLEWVSGISWNSGRIGYADSVKGRFTISRDNAKNSLYLQMNSLRPEDTAFYYCAKGGSTSARYSSGWYYWGQGTLVTVSS
VL: QSVLTQPPSVSVSPGQTATITCSGDALPKQYVYWYRQKPGQAPLLVIYEDSERPSGIPERFSGSSSGTEVTLSISGVQAEDEADYYCQSTDSSGTYVVFGGGTKLTVLS
notes: also called Fab pattern “S”
binding result (human OPGbp [143-317] [8]): binds
